Measurements: IntAct's records for PubMed 23901104

B1: Vacuolar protein sorting-associated protein 16 homolog (Homo sapiens), Q9H269 (parent)
chain: MDCYTANWNPLGDSAFYRKYELYSMDWDLKEELRDCLVAAAPYGGPIALLRNPWRKEKAASVRPVLDIYSASGMPLASLLWKSGPVVSLGWSAEEELLCVQEDGAVLVYGLHGDFRRHFSMGNEVLQNRVLDARIFHTEFGSGVAILTGAHRFTLSANVGDLKLRRMPEVPGLQSAPSCWTVLCQDRVAHILLAVGPDLYLLDHAACSAVTPPGLAPGVSSFLQMAVSFTYRHLALFTDTGYIWMGTASLKEKLCEFNCNIRAPPKQMVWCSRPRSKERAVVVAWERRLMVVGDAPESIQFVLDEDSYLVPELDGVRIFSRSTHEFLHEVPAASEEIFKIASMAPGALLLEAQKEYEKESQKADEYLREIQELGQLTQAVQQCIEAAGHEHQPDMQKSLLRAASFGKCFLDRFPPDSFVHMCQDLRVLNAVRDYHIGIPLTYSQYKQLTIQVLLDRLVLRRLYPLAIQICEYLRLPEVQGVSRILAHWACYKVQQKDVSDEDVARAINQKLGDTPGVSYSDIAARAYGCGRTELAIKLLEYEPRSGEQVPLLLKMKRSKLALSKAIESGDTDLVFTVLLHLKNELNRGDFFMTLRNQPMALSLYRQFCKHQELETLKDLYNQDDNHQELGSFHIRASYAAEERIEGRVAALQTAADAFYKAKNEFAAKATEDQMRLLRLQRRLEDELGGQFLDLSLHDTVTTLILGGHNKRAEQLARDFRIPDKRLWWLKLTALADLEDWEELEKFSKSKKSPIGYLPFVEICMKQHNKYEAKKYASRVGPEQKVKALLLVGDVAQAADVAIEHRNEAELSLVLSHCTGATDGATADKIQRARAQAQKK
partner: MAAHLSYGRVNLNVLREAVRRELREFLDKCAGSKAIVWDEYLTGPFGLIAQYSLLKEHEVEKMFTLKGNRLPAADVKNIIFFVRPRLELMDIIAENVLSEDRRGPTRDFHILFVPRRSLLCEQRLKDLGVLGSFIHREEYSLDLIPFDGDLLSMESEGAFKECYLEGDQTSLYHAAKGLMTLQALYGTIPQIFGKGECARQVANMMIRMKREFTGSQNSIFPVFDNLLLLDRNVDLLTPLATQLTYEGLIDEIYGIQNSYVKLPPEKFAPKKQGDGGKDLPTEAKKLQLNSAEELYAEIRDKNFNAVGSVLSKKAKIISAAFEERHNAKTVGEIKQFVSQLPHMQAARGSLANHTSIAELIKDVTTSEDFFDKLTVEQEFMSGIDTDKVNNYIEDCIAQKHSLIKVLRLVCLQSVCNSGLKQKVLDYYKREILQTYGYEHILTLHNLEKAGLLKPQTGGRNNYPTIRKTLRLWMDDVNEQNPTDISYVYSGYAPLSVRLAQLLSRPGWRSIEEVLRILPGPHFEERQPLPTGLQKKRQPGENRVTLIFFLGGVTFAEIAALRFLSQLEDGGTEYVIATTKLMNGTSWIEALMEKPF
B2: Vacuolar protein sorting-associated protein 33A (Homo sapiens), Q96AX1 (parent)
chain: B1 partner
partner: B1 chain

Variants of: B1
Details: with vp33a_human VPS33A

Row | Variant | effect of a mutation on the interaction
1 | A669D | decreasing interaction
2 | R725E | disrupting interaction

Variants of: B2
Details: with vps16_human VPS16, Q9H269

Row | Variant | effect of a mutation on the interaction
3 | Y438P | disrupting interaction strength
4 | Y438D | disrupting interaction
5 | I441K | disrupting interaction
6 | K429D | disrupting interaction
